This is an account of results in patent publication US20250263482A1.

The target in this assay is human CLDN18.2 expressed on cells (human). The assay can be described thus: cell-based or functional assay.

With Human IgG1 isotype antibody, the ADCC on KATOIII CLDN18.2 cells, LDH: max (% cytotoxity), run A is 0.3%; the ADCC on KATOIII CLDN18.2 cells, LDH: max (% cytotoxity), run B was -5.51%; the ADCC on KATOIII CLDN18.2 cells, LDH: max (% cytotoxity), run C is -7.64%; the ADCC on NCI-N87 CLDN18.2 cells, LDH: max (% cytotoxity), run A was -6.73%. For the same substance, the ADCC on NCI-N87 CLDN18.2 cells, LDH: max (% cytotoxity), run B is -11.7%; the ADCC on NCI-N87 CLDN18.2 cells, LDH: max (% cytotoxity), run C was -9.22%; the CDC on CT26 CLDN18.2 cells, LDH: max (% cytotoxity), run A was determined as 10.8%; the CDC on CT26 CLDN18.2 cells, LDH: max (% cytotoxity), run B is -0.23%. The CDC on CT26 CLDN18.2 cells, LDH: max (% cytotoxity), run C was -0.38%; the CDC on KATOIII CLDN18.2 cells, LDH: max (% cytotoxity), run A is -0.85%; the CDC on KATOIII CLDN18.2 cells, LDH: max (% cytotoxity), run B was -2.46%; the CDC on KATOIII CLDN18.2 cells, LDH: max (% cytotoxity), run C is -1.53%.
